Here are results for twelve molecules from patent publication US20250270341A1 (Alector, published 2025).

Holding throughout (experiment): FACS, hybridoma supernatant
Experiment [1] concerns the target T1, Full length mouse CD98hc on CHO cells (mouse, UniProt P10852 1-526).
T1 construct: CHO cells stably overexpressing it; also called CHO-mouse CD98hc; CHO-mCD98hc
T1 sequence: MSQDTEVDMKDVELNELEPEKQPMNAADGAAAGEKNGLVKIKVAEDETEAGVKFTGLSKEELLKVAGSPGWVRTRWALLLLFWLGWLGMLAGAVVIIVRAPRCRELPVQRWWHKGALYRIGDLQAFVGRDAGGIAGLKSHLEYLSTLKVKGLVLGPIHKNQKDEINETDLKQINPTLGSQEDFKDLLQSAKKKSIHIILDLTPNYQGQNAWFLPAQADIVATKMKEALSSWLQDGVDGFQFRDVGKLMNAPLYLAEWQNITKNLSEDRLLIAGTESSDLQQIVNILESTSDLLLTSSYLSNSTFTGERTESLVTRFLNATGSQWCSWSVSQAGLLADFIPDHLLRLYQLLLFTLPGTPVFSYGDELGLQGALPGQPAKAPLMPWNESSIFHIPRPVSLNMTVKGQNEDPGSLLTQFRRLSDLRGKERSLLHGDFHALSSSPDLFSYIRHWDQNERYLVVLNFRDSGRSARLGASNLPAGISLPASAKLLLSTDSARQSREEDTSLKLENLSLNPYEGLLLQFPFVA
The text has this:
The IgG positive hybridoma supernatants (898 in total) were initially screened for their ability to differentially bind CHO cells overexpressing human or mouse CD98hc cells compared to CHO parental cells by FACS. Overexpressing cells were harvested, washed, and labeled with various concentrations and combinations of CellTrace cell proliferation dyes CFSE and Violet (ThermoFisher, Cat #C34554 and Cat #34557, respectively) to create uniquely barcoded cell populations. Barcoded cells (5×10⁴ of each cell population) were aliquoted into 96-well U-bottom plates and incubated with 50 μl of hybridoma cell culture supernatant or 1 μg/ml of commercially available purified mouse anti-human CD98hc monoclonal antibody (Sigma Aldrich, Cat #SAB 4700503) and rat anti-mouse CD98hc antibody (Bio-Rad Laboratories, Hercules, CA, Cat #MCA2684) on ice for 30 minutes. […] Following this secondary antibody incubation, the cells were again washed twice with ice-cold FACS buffer and resuspended in a final volume of 50 μl of FACS buffer containing 0.25 μl/well propidium iodide (BD Biosciences, Cat #556463). Binding intensity on cells was analyzed using the FACS Canto system (BD Biosciences), with sorting gates drawn to exclude dead (i.e., propidium iodide-positive) cells. For each barcoded cell population, the ratio of APC Mean Fluorescence Intensity (MFI) divided by secondary antibody MFI was calculated for each anti-CD98hc hybridoma supernatant tested and reported in Table 5.

Experiment [2] addresses T2, human CD98hc endogenously expressed on HCMEC/D3 cells (human).
T2 construct: human brain endothelial cell line
T2 chain: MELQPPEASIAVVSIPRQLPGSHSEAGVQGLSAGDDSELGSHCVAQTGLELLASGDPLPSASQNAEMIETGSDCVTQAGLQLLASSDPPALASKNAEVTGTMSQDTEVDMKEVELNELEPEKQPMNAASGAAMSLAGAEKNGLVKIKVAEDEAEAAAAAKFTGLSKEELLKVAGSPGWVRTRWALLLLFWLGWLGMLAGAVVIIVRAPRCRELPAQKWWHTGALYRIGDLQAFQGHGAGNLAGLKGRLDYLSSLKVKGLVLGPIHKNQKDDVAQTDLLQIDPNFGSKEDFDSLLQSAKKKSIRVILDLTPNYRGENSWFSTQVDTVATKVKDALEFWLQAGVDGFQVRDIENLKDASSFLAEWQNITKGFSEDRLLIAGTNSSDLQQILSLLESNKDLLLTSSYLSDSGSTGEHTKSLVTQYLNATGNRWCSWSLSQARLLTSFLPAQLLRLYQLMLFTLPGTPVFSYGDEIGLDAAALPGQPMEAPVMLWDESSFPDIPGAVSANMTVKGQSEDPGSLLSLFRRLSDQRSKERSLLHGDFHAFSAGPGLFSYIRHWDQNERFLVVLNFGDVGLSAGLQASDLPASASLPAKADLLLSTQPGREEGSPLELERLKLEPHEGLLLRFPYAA

Experiment [3] deals with T3, Full length human CD98hc on CHO cells (human).
T3 construct: CHO cells stably overexpressing it; also called CHO-human CD98hc; CHO-huCD98hc
T3 chain: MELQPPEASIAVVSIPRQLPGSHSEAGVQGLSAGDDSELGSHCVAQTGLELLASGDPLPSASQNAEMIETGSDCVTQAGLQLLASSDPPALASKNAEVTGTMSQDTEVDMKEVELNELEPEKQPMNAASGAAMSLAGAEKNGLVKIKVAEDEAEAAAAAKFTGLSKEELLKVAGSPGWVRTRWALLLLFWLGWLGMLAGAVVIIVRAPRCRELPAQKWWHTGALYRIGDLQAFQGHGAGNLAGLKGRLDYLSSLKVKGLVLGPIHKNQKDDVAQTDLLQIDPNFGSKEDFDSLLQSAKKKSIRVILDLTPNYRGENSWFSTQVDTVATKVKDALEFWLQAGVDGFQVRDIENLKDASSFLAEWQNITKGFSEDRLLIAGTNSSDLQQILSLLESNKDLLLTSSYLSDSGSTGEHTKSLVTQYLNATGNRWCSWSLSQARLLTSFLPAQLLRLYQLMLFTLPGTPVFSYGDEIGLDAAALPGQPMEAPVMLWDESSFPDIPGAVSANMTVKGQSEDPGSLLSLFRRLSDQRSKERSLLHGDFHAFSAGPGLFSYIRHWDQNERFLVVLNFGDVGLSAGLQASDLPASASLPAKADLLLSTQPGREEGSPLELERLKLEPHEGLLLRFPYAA

B1: CD98HC.04.011 (antibody, V domains shown)
VH: DVQLQESGPDLVKPSQSLSLTCSVTVYSFTSVYSWHWIRQFPGNKLEWMGYIHDSGTTNYNPSLKSRISVTRDTSKNQFFLQLNSVTTEDTATYYCARGRPYGYDGFAYWGQGTLVTVSA
VL: DIQMTQSSSYLSVSLGDRVTITCKASDHINNWLAWYQQKPGNAPRLLITGAVNLETGVPSRFSGSGSGKDYTLSITSLQTEDVATYYCQQYWSIPRTFGGGTNLEIK
notes: hybridoma IgG
Take B1: in experiment [1], the binding result is recorded as “no binding”. The “MFI ratio over secondary antibody” value in experiment [2] was 192; in experiment [3], 31.

B2: CD98HC.04.009 (antibody, V domains shown)
VH: QVQLKESGPGLVAPSQSLSITCTVSGFSLTSYGVHWVRQPPGKGLEWLGVIWAGGSTYYNSALMSRLSISKDNAKSQVLLKMSSLQTDDTAMYYCARDNYGGVYLDVWGAGTTVTVSS
VL: ENVLTQSPASMSASPGEKVTMTCRASSSVSSSYLHWYQQKSGASPKLWIYSTSNLASGVPARFSGSGSGTSYSLTISSVEAEDAATYYCQQYSGYPLTFGSGTKLEIK
notes: hybridoma IgG
On to B2, for which the binding result in experiment [1] is “no binding”. The “MFI ratio over secondary antibody” value was 131 in experiment [2] and 18.5 in experiment [3].

B3: CD98HC.04.010 (antibody, V domains shown)
VH: QVQLQQSGAELMKPGASVKISCKATGYTFSTYWIEWVKQRPGHGLEWIGEILPGSGTTTYNEKFKGKATFTADTSSNTAYMQLSSLTSEDSAVYYCARRTVYYRYEGIDYWGQGTTLTVSS
VL: QIVLTQSPAIMSASPGEKVTITCSASSSVSYMFWFQQRPGTSPKLWIYTTSNLASGVPARFSGSGSGTSYSLTISRMEAEDAATYYCQQKNNYPFTFGSGTKLEIK
notes: hybridoma IgG
On to B3, for which the binding result in experiment [1] is on record as “no binding”. Besides, the entries for the “MFI ratio over secondary antibody” value in experiment [2] and in experiment [3] were 151 and 26.5, respectively.

B4: CD98HC.04.045 (antibody, V domains shown)
VH: QIQLVQSGPELKKPGETVKISCKASGYSITNFGMNWVKQAPGKGLKWMGWVNTYTGEPTYADDFKGRFAFSLETSASTASLQINNLKNEDTATYFCTRSVITYTMDYWGQGTSVTVSS
VL: DIQLTQSPSSLSASLGERVSLTCRASQEISGYLSWLQQKPDGTIKRLIYAASTLDSGVPKRFSGSRSGSDYSLTISSLESEDFADYYCLQYASYPRTFGGGTKVEIK
notes: hybridoma IgG
Regarding B4, the binding result in experiment [1] is listed as “no binding”. Further, the “MFI ratio over secondary antibody” value in experiment [2] was 4; in experiment [3] it was 2.4.

B5: CD98HC.03.031 (antibody, V domains shown)
VH: QVQLQQSGAELVRPGVSVKISCKASGYTFTDYAMHWVKQSHAKSLEWIGVISTYYGDTTYNQKFKDKATMTVDKSSSTAYLELARLTSEDSAIYYCARVWLLSYAMDNWGQGTSVTVSS
VL: DIVMTQSQRFMSTSVGDGVRITCKASQNVRTAVAWYQQKPGQSPKALINLAPNRHTGVPDRFTARGSGTDFTLTISNVQSEDLADYFCLQHWNYPLTFGAGTKLELK
notes: hybridoma IgG
Turning to B5, in experiment [1], the binding result is given as “no binding”. The “MFI ratio over secondary antibody” value worked out at 198 in experiment [2] and 38.9 in experiment [3].

B6: CD98HC.04.018 (antibody, V domains shown)
VH: QIQLVQSGPELKKPGETVKISCKASGYTFRNYGMNWVKQAPGKGLKWMGWINTYTGEPTYAEDFKGRFAFSLETSASTAYLQINKLKNEDEATYFCARGEAHWYFDVWGAGTTVTVSS
VL: QIVLTQSPAIMSASLGERVTMTCTASSSVSSSYLYWYQQKPGSSPKLWIYSIFNLASGVPARFSGSGSGTSYSLTISSMEAEDAATYYCHQYHRSPPTFGGGTKLEIK
notes: hybridoma IgG
Regarding B6, the binding result in experiment [1] is reported as “no binding”. For the same molecule, the “MFI ratio over secondary antibody” value in experiment [2] was found to be 335; in experiment [3], 50.3.

B7: CD98HC.04.012 (antibody, V domains shown)
VH: QVQLQQSGADLVRPGDSVKISCKGSGYTFTDNTLHWVKQSHAKSLEWIGVISPYYGDASYNQKFKGKATMTVDKSSSTAYMELARLTSEDSAIYYCARVGGRLRLGYYFDHWGQGTTLTVSS
VL: NIMMTQSPSSLAVSAGEKVTMNCKSSQSVLSSSNQKNYLAWYQQKPGQSPKLLIYWASTRESGVPARFTGSGSGTDFSLTITSVQAEDLAVYYCLQYLSSYTFGGGTKLEIK
notes: hybridoma IgG
Regarding B7, the binding result in experiment [1] is “no binding”. For the same molecule, the “MFI ratio over secondary antibody” value in experiment [2] stood at 155; in experiment [3] it was 28.3.

B8: CD98HC.04.013 (antibody, V domains shown)
VH: EVQLVESGGDLGMPGGSLKLSCAASGFALSGYDMSWVRQTPDKRLEWVAYLSSGGGSTYYPYTVKGRFTISRDNAQNTLYLQMSSLKSEDTAIYYCARHSEVRPWFGYWGQGTLVTVSA
VL: DIVMSQSPSSLAVSVGEKVTLTCKSSQSLLYSGNQKNYLAWYQQNPGQSPKLLIYWASTRESGVPDRFTGSGSGTDFTLTISSVKAEDLAVYYCQQYYTYPPTFGAGTKLGLK
notes: hybridoma IgG
For the molecule B8, the binding result in experiment [1] was “no binding”. Further, the “MFI ratio over secondary antibody” value in experiment [2] worked out at 124; in experiment [3], 21.2.

B9: CD98HC.04.006 (antibody, V domains shown)
VH: EVNLVESGGDLVQPGGSLRLSCATSGFTFTDYFMSWVRQPPGKALEWLGFIRNKAYGYTTEYSASVKGRFTISRDNSQSIFYLQMNTLRLEDSATYYCARGPFISTAPFAYWGQGTLVTVSA
VL: DIVMSQSPSSLAVSVGETVTMSCKSSQSLLYSSNQKNYLAWYQQKPGQSPKLLIYWGSTRESGVPDRFTGSGSGTDFTLTISSVKAEDLAVYYCQHYYGYPWTFGGGTKLEIK
notes: hybridoma IgG
As to B9, in experiment [1], the binding result was “no binding”. Besides, the “MFI ratio over secondary antibody” value in experiment [2] came to 197; in experiment [3], 39.

B10: CD98HC.03.002 (antibody, V domains shown)
VH: DVQLVESGGGLVQPGGSRKLSCAASGFTFSTFGMHWVRQAPEKGLEWVAYISGGSTNIYYADTVKGRFTISRDNPKNTLFLQMTSLRSEDTAMYYCARETTLLATNFDYWGQGTTLTVSS
VL: DIQMTQTTSSLSASLGDRVTISCRASQDISNYLNWYQQKPDGTVKLLIYYTSRLHSGVPSRFSGSGSGTDYSLTISNLEQEDIATYFCQQGSTLPRTFGGGTKLEIK
notes: hybridoma IgG
Consider B10, for which the binding result in experiment [1] is recorded as “no binding”. In addition, the results for the “MFI ratio over secondary antibody” value in experiment [2] and in experiment [3] were 233 and 28.5, respectively.

B11: CD98HC.04.003 (antibody, V domains shown)
VH: QVQLQQSGAELAKPGASLKMSCKASGYTFTDYYIHWVKQRPGQDLEWIGYINPNSAYTDSNQKFKDKATLTADKSSNTAYMQLSSLTSEDSAVYYCARKGHFYAPSFAYWGQGTLVTVSA
VL: DIQMTQTTSSLSASLGDRVTISCRASQDISNYLNWYQQKPDGTVKLLIYYTSRLHSGVPSRFSGSGSGADYSLTISNLQQEDIATYFCQQGDTLPYTFGGGTKLEIE
notes: hybridoma IgG
Consider B11, for which, in experiment [1], the binding result was “no binding”. Moreover, the “MFI ratio over secondary antibody” value in experiment [2] is 13.8; in experiment [3] it was 3.2.

B12: CD98HC.04.022 (antibody, V domains shown)
VH: EVQLQQSGAELVKPGASVKLSCTASGFNIKDTFMHWMKQRPEQGLEWIGRIDPANANTRYDPKFQGKATITTDTSSNTAYLQLSSLTSEDTAVYYCARDVYYDVWGAGTTVTVSS
VL: DILMTQSPSSMSVSLGDTVTITCHASQGISSNIGWLQQKPGRSFKGLIYHGSNLEDGVPSRFTGSGSGTDYSLTISGLESEDFADYYCVQYAQFPRTFGGGTKLEIQ
notes: hybridoma IgG
B12: the binding result in experiment [1] is “no binding”. Besides, the “MFI ratio over secondary antibody” value in experiment [2] was found to be 102; in experiment [3], 16.6.
